Measurements published in the domain aggregation screens of Martell et al. (2025).

Experiment: soluble fraction after stress (log2 fold change); higher = more stays soluble; pooled small domains, quantitative proteomics
Conditions: stress: pH 4
Outline: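 After pH 4 stress, pooled custom libraries of small protein domains were quantified with high-throughput quantitative proteomics. Aggregation propensity is taken from the fold change in each domain's soluble amount following the acid stress. The scale is log2, where higher values mean more stayed soluble.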

Going from “HMDQILIHLKEGIDVTDVQPMLKALDLNVRMFNRDKNIIVISVLNRELDAIPQTIAALRPWEELFDSA” to “HMDTIASESVRNRIEELISNENPKKPLSDQALVKMLQEFDIKIARRTVAKYREMLKIPPSSKRKQV”, the “soluble fraction (log2)” value rises from -0.184 to 0.0429.

Going from “HMDGVPPAGSRIRLTVSTQVGDKEFEGTLVPPAGVDLLTLKLANGYNLSHSIADVREVVLIEEGLQGEEP” to “HMPVISGQDLRVLIRDTGRERDQGISFLDDGTMVVVEDARRLIGQEVTATVTRVHQTQTGRIVFAHLSN”, the “soluble fraction (log2)” value rises from -2.05 to -0.698.

First: HMDRMINYSPIVAKVPQDDYTTKVYNIPIYSELTVVDKISEPEPLIAPIYRFKYITPEDEEIEFDIPV
Second: HMDSLARKTVNGAEFYIYPVESAEGFYSLRRKFGVSQEEVIKYNPSAQNGLKSGQVLLIPVT
The “soluble fraction (log2)” value of the first is lower: -0.39 for the first, 0.125 for the second.

Going from “HMDVADITGTRKAAILLLTMDEELSKELLKEFERHEIEAIGKEIANIKYIPENIVKQVHSEFLKNINKS” to “HMETWDQAYETIKQNILNLTYPPGMPLTEAKLAEELGMSRSPVRTALRMLQTDGLIVTDYYKSMTVKEI”, the “soluble fraction (log2)” value falls from -0.752 to -2.07.

“HMSAGKKSFTNSEFRRFLDALGEGLIVKHKKLGEGVVVEIRGDKAVIQFGDEQRLYELKTLYEYDLLR” and “HMTEKEEERTEDLNYYRLNLISMLKSSYPEYLDDEEFISNRSQEAAEAFEDAVRSGSNYLDASAESNRTLY” are within 0.2 log units of each other in “soluble fraction (log2)” value: -0.874 for the first, -0.717 for the second.

First: HMSDGIPDLRNLNFLSPQEGDYLNESDRVFGVTINGDGQAYPLRIVNAHEMVNDTLGGEPISLM
Second: HMNFRESVLAVFENSKQKYLDFDEIAKRLGLTRGFDRQALASMLNELTRNDEIVFTKRNKYTLPEN
The “soluble fraction (log2)” value of the first is higher: -0.34 for the first, -0.774 for the second.

Compared with “HMRMETRILTADESGIRLDAFLASRLAVSRSLAASLIDDGNVTLNGTVPKKKTAVNVGDILEVAMP”, “HMWKSEAGKKIIESLAQKYNKSNAQIILRWHIQMGYIVIPGARSENHIKENINIFDFKLTNEEINNILKLN” is lower in “soluble fraction (log2)” value: 0.22 for the first, -0.124 for the second.

“HMDKELILLWDRVKSKVWQMDIQDSQVANWFQRNYHLTVRLRDFDPPVPPDKFTAEQLASFIKDIERHT” and “HMSSNLSLHKEGNKIVILGLEGKSVIEVYDLMGRLLSSQTNYNPKQEITLLQPVIIRVTDTQQTKSFKV” are within 0.2 log units of each other in “soluble fraction (log2)” value: -0.000327 for the first, -0.132 for the second.

Going from “HMRMSRSARLFDLLHILRSHRRAVSGQALAQQLGISIRTLYRDIASLQAQGAKIEGEPGVGYMLKP” to “HMEEEPALLRDLLAKTLEFGLIPQLSHHPALADRTQQLASAVRAAGSASALRNAAASLKSLWIDVDQ”, the “soluble fraction (log2)” value falls from -0.0136 to -0.617.

Compared with “HMAALTADEAKQIALKHAGVAESDVQRLKVEQDRDDGRLLYEVEWDVGRTEYSYEIDANTGDILNYEKDV”, “HMNGVPDMSPVPEGARNSTLHAWAFGRLKNHPDNETGIREDLFRRGHASGLQDAELDQIWKSIKRTL” is higher in “soluble fraction (log2)” value: -0.361 for the first, ≥ 0.43 for the second.

Compared with “HMEAEPRLLDLPPGTRAGRLDKVLAQLLPEHSRSRLQGWIERGGVLVNGKEASVRQVVGPGDQLTVWEEAA”, “HMTEFFNMQDMFYFKLTGDVTSKERRQSLGKILGIGYGNAAQMVSRLNNYGITKEEFTNAINEIEKQMEAG” is lower in “soluble fraction (log2)” value: 0.0341 for the first, -0.511 for the second.

Going from “HMSMEKNWVPSEDVIEILTRAGMNENFIRELIPEFIIYWSERKDVLISYDSKFIEHARLKWAQHNAE” to “HMTSESWAEKSRSLAAAGLIVMGRDAQLKIEGLTNLDPLIEAATASSTRLLTGQTIDELLTIVP”, the “soluble fraction (log2)” value falls from 0.0608 to -0.627.

Going from “HMESSNLESQLKKGIVPNLNGLSAKDALFLLENSGFNVKLYGMGSVKKQSLEAGKKYNKGDKITLIL” to “HMTYIQSNLKFLRNKMNISQEELAKRLFVTHQTVSNHENGKSQPNFEMIEKYASFFNVPFEDLIHKDLSL”, the “soluble fraction (log2)” value falls from 0.219 to -0.309.

Compared with “HMKDEGSLKVIGQMVVIGIPQSEAKRFANTYTVAQIRAALQYTQKRSEDKNASKLENVAAYFRQALVRNWG”, “HMKNLSQAEFMYLFKILAFGSTDPDNHPEMAATGMEIAKMLQGLLLSGNVLADILRKNQNVQFWL” is lower in “soluble fraction (log2)” value: ≥ 0.43 for the first, -0.0785 for the second.

First: HMGSYIGEAKAKEIALSHAGVSASQATFVRSQFEYDDGRAVYDVDFWSGNKEYDYEIDAKSGTIVSYDFD
Second: HMTQLEVDLFERLITISGVGPRLALAVLSGLEPPDLLRAIQDSDIVRLQGIPGVGKKTAERISLELKDKLS
The “soluble fraction (log2)” value of the first is higher: 0.0669 for the first, -0.854 for the second.

Compared with “HMNQYIFVLNEKGARITSFVDNTIPKEELIALAKQDYPNAADYIYSADGDSMLDEFMRGKLYVNGQFVAA”, “HMSPGAKIEVTGNTVNLRAGPGTNYDTRGQVKKGEQLPLLGEQGGWYRVQTSRGVAYLAGWLARVLT” is higher in “soluble fraction (log2)” value: -0.475 for the first, -0.0378 for the second.

First: HMNVKVSVDDIARPGLMASGRVTFADGNRGMWYVDEMGRLGIDPEVEGYQPSEADIQAFQRELQSVMES
Second: HMAIVNVEVPSLVGKTEQEARNLLTEAGLKVNVVNDEDESKNDGVVLRQSKDAGTEVQEGTTITITVNKVS
The “soluble fraction (log2)” value of the first is lower: -0.927 for the first, -0.467 for the second.

“HMFAATGVVNAPSGLVLRETASKGGNPLATVPDKAQVEIVEEDGEWYKVKVNEQTGYLFAEFVNKTE” and “HMEAEVIKTASDMADRNGLHNVSLKAIAENLGIRTPSLYNHIGSLDELLREIAHSGMRTMNE” are within 0.2 log units of each other in “soluble fraction (log2)” value: -0.13 for the first, -0.247 for the second.

Compared with “HMEIIMIVITKPSITDERIAEIVAVIERNGGVQAHVSKGTDRTVIGIIGKAEPTLAEHLRQMKGVENVIKI”, “HMPLTEMAVRKHLSAELAQKGYTIDPRALEILLQRTNTNLTAIANELPKLLLVAEDKQITVNEVSAM” is higher in “soluble fraction (log2)” value: -0.327 for the first, -0.1 for the second.

Compared with “HMTDLALHIGKTLRELRQRRGWSLDKTAQATGVSKAMLGQIERGESSPTVVTLWRISSGLQASFSEFLPP”, “HMFTFEDMDKFESLLTTGLTDVQRRIYSLVTHDGKEYDLIAETLGISVEAVRMHMSRARKKIRENYKKID” is lower in “soluble fraction (log2)” value: 0.0792 for the first, -1.7 for the second.

First: HMGEIHAQIPGLVSHLFVKEGNTVQVEQKLFILEAMKMENEIDSPIQGTVKRIHIATGSKVEKGDLIMEIS
Second: HMDWVAYGAELRRRRLLAGWTVAELSRRINLSGMTIHQIEKGRGRLRPSELTLAKLAAALGMPTP
The “soluble fraction (log2)” value of the first is lower: -0.117 for the first, ≥ 0.43 for the second.

Compared with “HMVVGYRYVTNVANAVNFRQKPSASSTIITTIPYGTRIGYVEDANSEYARVKYDNMYGYVAKFYLSNYSPP”, “HMKELTYSDFRKAYPDIQGNLFGMAERYITALDWTEVAAKVETDEELRKERDIFYLVKTYIRKYVQ” is lower in “soluble fraction (log2)” value: 0.276 for the first, -0.695 for the second.

“HMSDEVNTDKAFRAIDSTLNRNVKGIAPRDHTLLRNTMITYFKSNDYIDYDTMIQSTLENYKPTELEQDKM” and “HMTISDEAMQAGRDAFIQALVAMGAEKNADAMASIEKALSADPGNKEYLATRDLIKKSMGMKK” are within 0.2 log units of each other in “soluble fraction (log2)” value: 0.135 for the first, 0.138 for the second.

First: HMARKFQKDTGYLNKKERTWLLDFFPSLKKYLYTGAYIRSIIVVESNVTYTDKELPSNYTFTYKFA
Second: HMQETIDVAALRVGMFVHLDLGWLAHPFPLSSFRISSEDQISTIRALGLKRVRWSSQHSELG
The “soluble fraction (log2)” value of the first is higher: 0.176 for the first, -1.27 for the second.

Going from “HMTKSIDFDFREDGVYIKADKDVTIVDIVTKIDLRRIQSVDLTKIKQMLEIGSLDNWIKIAEPQMEK” to “HMQHYQFEVDEASSKKRLDVFLSENLPEISRSRLKKLIDEKRVTVNEMSRPAGYKVRVKEKIEFHIPPL”, the “soluble fraction (log2)” value rises from -1.44 to -0.317.

First: HMALPQPDDDRQDTKKRILDMAEDLLLTRGFNAFSYQHISSELGMKNAAIHYHYPKKNDLGVAVIQRYRRR
Second: HMNVRRSRTHEKVTTYQGYDIFINKEPNQRGMFTSAPMRGDNEYSNLRGEGKSKQDAVNMTKEKIDEIAA
The “soluble fraction (log2)” value of the first is lower: -0.178 for the first, 0.229 for the second.

First: HMIIIMKPNASEEAVRKVTHIIESKGLQVHLSKGSQVTIVGVVGDKTRLQGSNIEISEGVDKVVAVT
Second: HMGHYGQMTRDLIEKAKTYEEGEEKAALVLTIANLMKRHYLTWNRATVENTLIAEQLKEMSEGALTLPEDV
The “soluble fraction (log2)” value of the first is higher: -0.0906 for the first, -0.962 for the second.

Compared with “HMANEGWDIYKLDIRNHKQPNGEYYSEKEIQSTINNTFGKGSFNVDWKKYEKDKEYREKTNYYYFQAKYFV”, “HMHIMINPDQLSPEQIQSIRTWAEEGLDLNAIQKRLHEDLNIKLTFMDTRFLLQDLDIRIRQPEPEPEAEQ” is lower in “soluble fraction (log2)” value: -0.24 for the first, -0.67 for the second.

Compared with “HMYNKKAYVNTNSDFLNVRSEASTESSVVDKLARGTEVNIVGNIQNGFYPIVLNEKNAWVSSDWISFEKPT”, “HMYRPLYQQVYDFLVKQIAAGEWGPGESLPSEQALAGRLNVSQGTVRKALDALAADSLIDRRQGKGTYVAE” is lower in “soluble fraction (log2)” value: ≥ 0.43 for the first, 0.32 for the second.

“HMQPFTELTPREREILGHLAEGQSNKVIARHLDISDGTVKLHVKAILRKLGVHSRVEAAVMAVEHGIR” and “HMTSNSLNLKDEISAFLTKNAGISYSAERIAHALNMDNADQFTPIIQTLAQLEREKKVRVTDKGEFEAVIK” are within 0.2 log units of each other in “soluble fraction (log2)” value: 0.4 for the first, 0.229 for the second.

“HMSGNPLDTYYSKWSAEIKKGSPNAVISKEGDKYYVSIPGENRMAIIYENPHLIRMVNATRNIHVE” and “HMKGTVLAPGIILNADDQRFTYLQEDVASVAKDGAAIVLKQGDEVDFIADGQTAKQIYLTKT” are within 0.2 log units of each other in “soluble fraction (log2)” value: 0.0911 for the first, 0.0738 for the second.

Compared with “HMYRYGETPMVVVPDLIGRTVSDIYEEMNADFRLEKFGNGNTVISQAPKPGERVEQGSVIRVYLSGQDQ”, “HMQLFKFKNAMMELAKNKNITLDTAEKAIGLEAGFTELVARGVKELALSDVIKISKYFNTTMDSVLD” is lower in “soluble fraction (log2)” value: -0.206 for the first, -0.995 for the second.

Compared with “HMENLIEELTAKNKEYIHSVTKQLILVGKSDEEVKEILNDILPQIIEGQKSGIIARKLLGAPTEFVSQYQP”, “HMGRELDLNQRVYDFIHDIADEVRTDEGTFSANQMMERFLFPGDLQSVPIGRLSGGERRRLYLLSVLMVKI” is lower in “soluble fraction (log2)” value: -0.317 for the first, -1.15 for the second.

First: HMEGNFFADIRQELMRELDQEAEWSDVQILEKIDDLVLLRTRRSSLTVNEKEQLRKELFYSVRK
Second: HMEAYLPVTVVSDGKILTGNLEKAGKNEKWLENVLSELKTDVKNTLLLTVDPKDGLIFYPKG
The “soluble fraction (log2)” value of the first is lower: -0.394 for the first, 0.0447 for the second.

First: HMAPDGIEDKEGWLKVLPMITNLSIQMQNLQARGMDYEHIRNLLHETLLRYDDRIDSNLFIPNV
Second: HMNYSKQRETILKVLRSTRSHPSVNWIYENVKKEIPDVGLATVYRNLKQLEAAGEIMRIQGDFPEERWDGF
The “soluble fraction (log2)” value of the first is higher: -0.198 for the first, -0.587 for the second.

Going from “HMKTGNIIAVSLVWKGKYYMIRMFFPSAARPSRADVQTEIEKVYPGSKLSSFSVSDYEPGQPLLQV” to “HMASLSRRELEVLELLALRLTVKEVAERLVISELTAKRHTSNIYQKLGVNRRRDALAAAQARGLLGAR”, the “soluble fraction (log2)” value falls from -0.146 to -1.09.

Going from “HMITLKKRRQEAILEIIEKYDLSTQDELLQKLKDSGFDATQATVSRDIKELRLVKTMGANGQYKYAVT” to “HMETLETYTSRLRQLEDITNNFKGVDKSFAIQAGREIRVMVVPEQVSDADMILMARDISKAIEAELEYPGQ”, the “soluble fraction (log2)” value rises from -0.735 to -0.315.

For “HMGEPTLTIRVVSYNPQSGEMVVVARDPLSGRYALATLNVRTGAGQMIGPQGELLPIENFALGS”, the “soluble fraction (log2)” value was -0.692.
